Patent US20100074892A1 (US Dept. of Health and Human Services, published 2010)

Target: recombinant anthrax protective antigen (PA) (Bacillus anthracis, UniProt P13423 30-764)
Assay: SPR (Biacore 3000), antibody immobilized on CM3, PA in solution

recombinant anthrax protective antigen (PA), sequence (P13423 30-764 limits assumed): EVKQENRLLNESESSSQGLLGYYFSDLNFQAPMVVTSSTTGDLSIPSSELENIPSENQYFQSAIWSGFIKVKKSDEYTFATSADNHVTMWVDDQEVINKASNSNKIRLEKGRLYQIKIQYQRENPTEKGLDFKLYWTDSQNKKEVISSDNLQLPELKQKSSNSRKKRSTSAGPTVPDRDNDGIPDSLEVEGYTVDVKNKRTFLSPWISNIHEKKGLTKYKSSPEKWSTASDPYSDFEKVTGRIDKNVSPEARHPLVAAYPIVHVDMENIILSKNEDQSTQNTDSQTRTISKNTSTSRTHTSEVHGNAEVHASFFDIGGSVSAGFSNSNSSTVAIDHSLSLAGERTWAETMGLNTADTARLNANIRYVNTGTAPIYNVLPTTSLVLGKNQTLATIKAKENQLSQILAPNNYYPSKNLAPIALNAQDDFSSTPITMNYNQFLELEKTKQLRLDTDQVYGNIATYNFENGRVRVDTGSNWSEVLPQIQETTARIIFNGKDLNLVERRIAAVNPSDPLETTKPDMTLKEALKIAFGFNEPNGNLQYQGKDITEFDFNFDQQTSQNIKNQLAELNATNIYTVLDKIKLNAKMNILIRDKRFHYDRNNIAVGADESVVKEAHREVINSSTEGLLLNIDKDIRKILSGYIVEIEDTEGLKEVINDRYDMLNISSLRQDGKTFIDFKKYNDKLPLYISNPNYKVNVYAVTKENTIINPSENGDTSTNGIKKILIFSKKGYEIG

B1: anti-PA W1 full-length IgG1 (antibody, V domains shown)
VH: EVQLLETGGGLVQPGGSLRLSCAASGFTLRSYHMSWVRRAPGKGLEWVSVIYDGGSTSYADSVKGRFTISRDNSKNTLYLQMTSLRAEDTAVYYCARSGRPLQNYYYMDVWGKGTTVTVSS
VL: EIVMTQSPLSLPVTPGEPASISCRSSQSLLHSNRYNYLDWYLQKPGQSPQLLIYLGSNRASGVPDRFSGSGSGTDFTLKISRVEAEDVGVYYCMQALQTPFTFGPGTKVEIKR
Which results are given for B1?
Kd: 0.0397 nM; koff: 1.15e-05 s⁻¹; kon: 290000 M⁻¹ s⁻¹
